What was measured:
[1] = test system: HeLa Kyoto; assay: thermal stability score vs G1/S (z-score of summed log2 fold changes over temperatures); higher = more thermally stable than in G1/S
[2] = test system: HeLa Kyoto; assay: melting temperature (median over replicates), in situ; higher = more thermally stable
[3] = test system: HeLa Kyoto; assay: solubility in G1/S (NP-40 vs SDS abundance) (log2 ratio); higher = more soluble; settings: cell cycle stage: G1/S
[4] = test system: HeLa Kyoto; assay: solubility change mitosis vs G1/S (difference of NP-40 vs SDS log2 ratios) (log2 ratio difference); higher = more soluble in mitosis
[5] = cell cycle stage: early G1 (4.5 h after nocodazole release)
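Throughout, for melting temperature (median over replicates), in situ: HeLa Kyoto cells synchronized by double thymidine or nocodazole block, proteins quantified by TMT10plex mass spectrometry, three independent biological replicates.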
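Throughout, for solubility change mitosis vs G1/S (difference of NP-40 vs SDS log2 ratios): synchronized HeLa Kyoto cells (double thymidine block for G1/S, nocodazole release for mitosis), protein amounts in NP-40 versus SDS lysates quantified by mass spectrometry, three biological replicates.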
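Throughout, for solubility in G1/S (NP-40 vs SDS abundance): HeLa Kyoto cells arrested at G1/S by double thymidine block, proteins quantified by TMT10plex mass spectrometry in mild NP-40 versus SDS extracts, three biological replicates.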
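Throughout, for thermal stability score vs G1/S (z-score of summed log2 fold changes over temperatures): synchronized HeLa Kyoto cells, proteins quantified by TMT10plex mass spectrometry, three biological replicates, mitosis taken 0.5 h after nocodazole release, G1/S directly after double thymidine block.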

In the case of “MHFSIPETESRSGDSGGSAYVAYNIHVNGVLHCRVRYSQLLGLHEQLRKEYGANVLPAFPPKKLFSLTPAEVEQRREQLEKYMQAVRQDPLLGSSETFNSFLRRAQQETQQVPTEEVSLEVLLSNGQKVLVNVLTSDQTEDVLEAVAAKLDLPDDLIGYFSLFLVREKEDGAFSFVRKLQEFELPYVSVTSLRSQEYKIVLRKSYWDSAYDDDVMENRVGLNLLYAQTVSDIERGWILVTKEQHRQLKSLQEKVSKKEFLRLAQTLRHYGYLRFDACVADFPEKDCPVVVSAGNSELSLQLRLPGQQLREGSFRVTRMRCWRVTSSVPLPSGSTSSPGRGRGEVRLELAFEYLMSKDRLQWVTITSPQAIMMSICLQSMVDELMVKKSGGSIRKMLRRRVGGTLRRSDSQQAVKSPPLLESPDATRESMVKLSSKLSAVSLRGIGSPSTDASASDVHGNFAFEGIGDEDL [SNX17]”, the thermal stability score [1, 5] was 1.32, the thermal stability score ([1]; cell cycle stage: mitosis) was 0.59 and the melting temperature ([2]; cell cycle stage: G1/S) was 50.9 °C. The melting temperature ([2]; cell cycle stage: mitosis) was 51.4 °C, the “solubility in G1/S (log2)” value [3] was 0.103 and the “solubility change mitosis (log2)” value [4] was -0.263.

“MHKAGLLGLCARAWNSVRMASSGMTRRDPLANKVALVTASTDGIGFAIARRLAQDGAHVVVSSRKQQNVDQAVATLQGEGLSVTGTVCHVGKAEDRERLVATAVKLHGGIDILVSNAAVNPFFGSIMDVTEEVWDKTLDINVKAPALMTKAVVPEMEKRGGGSVVIVSSIAAFSPSPGFSPYNVSKTALLGLTKTLAIELAPRNIRVNCLAPGLIKTSFSRMLWMDKEKEESMKETLRIRRLGEPEDCAGIVSFLCSEDASYITGETVVVGGGTPSRL [DHRS4]” showed a thermal stability score [1, 5] of -0.643, a thermal stability score ([1]; cell cycle stage: mitosis) of -0.663 and a melting temperature ([2]; cell cycle stage: G1/S) of 53.4 °C. The melting temperature ([2]; cell cycle stage: mitosis) was 53.5 °C, the “solubility in G1/S (log2)” value [3] was -0.159 and the “solubility change mitosis (log2)” value [4] was 0.0427.

Sequence “MHPLQCVLQVQRSLGWGPLASVSWLSLRMCRAHSSLSSTMCPSPERQEDGARKDFSSRLAAGPTFQHFLKSASAPQEKLSSEVEDPPPYLMMDELLGRQRKVYLETYGCQMNVNDTEIAWSILQKSGYLRTSNLQEADVILLVTCSIREKAEQTIWNRLHQLKALKTRRPRSRVPLRIGILGCMAERLKEEILNREKMVDILAGPDAYRDLPRLLAVAESGQQAANVLLSLDETYADVMPVQTSASATSAFVSIMRGCDNMCSYCIVPFTRGRERSRPIASILEEVKKLSEQVFLPPRPPKVLGLQGLKEVTLLGQNVNSFRDNSEVQFNSAVPTNLSRGFTTNYKTKQGGLRFAHLLDQVSRVDPEMRIRFTSPHPKDFPDEVLQLIHERDNICKQIHLPAQSGSSRVLEAMRRGYSREAYVELVHHIRESIPGVSLSSDFIAGFCGETEEDHVQTVSLLREVQYNMGFLFAYSMRQKTRAYHRLKDDVPEEVKLRRLEELITIFREEATKANQTSVGCTQLVLVEGLSKRSATDLCGRNDGNLKVIFPDAEMEDVNNPGLRVRAQPGDYVLVKITSASSQTLRGHVLCRTTLRDSSAYC [CDK5RAP1]” has a thermal stability score [1, 5] of 0.115, a thermal stability score ([1]; cell cycle stage: mitosis) of 0.734 and a melting temperature ([2]; cell cycle stage: G1/S) of 50.6 °C. The melting temperature ([2]; cell cycle stage: mitosis) was 51 °C, the “solubility in G1/S (log2)” value [3] was -0.0387 and the “solubility change mitosis (log2)” value [4] was -0.0868.

“MHRDSCPLDCKVYVGNLGNNGNKTELERAFGYYGPLRSVWVARNPPGFAFVEFEDPRDAADAVRELDGRTLCGCRVRVELSNGEKRSRNRGPPPSWGRRPRDDYRRRSPPPRRRSPRRRSFSRSRSRSLSRDRRRERSLSRERNHKPSRSFSRSRSRSRSNERK [SRSF3]” showed a thermal stability score [1, 5] of -0.84, a thermal stability score ([1]; cell cycle stage: mitosis) of -4.46 and a melting temperature ([2]; cell cycle stage: G1/S) of 55.3 °C. For the same sequence, the melting temperature ([2]; cell cycle stage: mitosis) was 54.2 °C, the “solubility in G1/S (log2)” value [3] was -0.0567 and the “solubility change mitosis (log2)” value [4] was 0.503.

“MHRRGVGAGAIAKKKLAEAKYKERGTVLAEDQLAQMSKQLDMFKTNLEEFASKHKQEIRKNPEFRVQFQDMCATIGVDPLASGKGFWSEMLGVGDFYYELGVQIIEVCLALKHRNGGLITLEELHQQVLKGRGKFAQDVSQDDLIRAIKKLKALGTGFGIIPVGGTYLIQSVPAELNMDHTVVLQLAEKNGYVTVSEIKASLKWETERARQVLEHLLKEGLAWLDLQAPGEAHYWLPALFTDLYSQEITAEEAREALP [SNF8]” was tested, and the thermal stability score [1, 5] was -0.788, the thermal stability score ([1]; cell cycle stage: mitosis) was -0.397 and the melting temperature ([2]; cell cycle stage: G1/S) was 52.9 °C. The melting temperature ([2]; cell cycle stage: mitosis) was 51.5 °C, the “solubility in G1/S (log2)” value [3] was 0.377 and the “solubility change mitosis (log2)” value [4] was 0.0161.

Sequence “MIAAPEIPTDFNLLQESETHFSSDTDFEDIEGKNQKQGKGKTCKKGKKGPAEKGKGGNGGGKPPSGPNRMNGHHQQNGVENMMLFEVVKMGKSAMQSVVDDWIESYKHDRDIALLDLINFFIQCSGCKGVVTAEMFRHMQNSEIIRKMTEEFDEDSGDYPLTMAGPQWKKFKSSFCEFIGVLVRQCQYSIIYDEYMMDTVISLLTGLSDSQVRAFRHTSTLAAMKLMTALVNVALNLSINMDNTQRQYEAERNKMIGKRANERLELLLQKRKELQENQDEIENMMNAIFKGVFVHRYRDAIAEIRAICIEEIGIWMKMYSDAFLNDSYLKYVGWTMHDKQGEVRLKCLTALQGLYYNKELNSKLELFTSRFKDRIVSMTLDKEYDVAVQAIKLLTLVLQSSEEVLTAEDCENVYHLVYSAHRPVAVAAGEFLYKKLFSRRDPEEDGMMKRRGRQGPNANLVKTLVFFFLESELHEHAAYLVDSMWDCATELLKDWECMNSLLLEEPLSGEEALTDRQESALIEIMLCTIRQAAECHPPVGRGTGKRVLTAKEKKTQLDDRTKITELFAVALPQLLAKYSVDAEKVTNLLQLPQYFDLEIYTTGRLEKHLDALLRQIRNIVEKHTDTDVLEACSKTYHALCNEEFTIFNRVDISRSQLIDELADKFNRLLEDFLQEGEEPDEDDAYQVLSTLKRITAFHNAHDLSKWDLFACNYKLLKTGIENGDMPEQIVIHALQCTHYVILWQLAKITESSSTKEDLLRLKKQMRVFCQICQHYLTNVNTTVKEQAFTILCDILMIFSHQIMSGGRDMLEPLVYTPDSSLQSELLSFILDHVFIEQDDDNNSADGQQEDEASKIEALHKRRNLLAAFCKLIVYTVVEMNTAADIFKQYMKYYNDYGDIIKETMSKTRQIDKIQCAKTLILSLQQLFNEMIQENGYNFDRSSSTFSGIKELARRFALTFGLDQLKTREAIAMLHKDGIEFAFKEPNPQGESHPPLNLAFLDILSEFSSKLLRQDKRTVYVYLEKFMTFQMSLRREDVWLPLMSYRNSLLAGGDDDTMSVISGISSRGSTVRSKKSKPSTGKRKVVEGMQLSLTEESSSSDSMWLSREQTLHTPVMMQTPQLTSTIMREPKRLRPEDSFMSVYPMQTEHHQTPLDYNRRGTSLMEDDEEPIVEDVMMSSEGRIEDLNEGMDFDTMDIDLPPSKNRRERTELKPDFFDPASIMDESVLGVSMF [STAG2]” has a thermal stability score [1, 5] of -0.506, a thermal stability score ([1]; cell cycle stage: mitosis) of -0.478 and a melting temperature ([2]; cell cycle stage: G1/S) of 52.9 °C. For the same sequence, the melting temperature ([2]; cell cycle stage: mitosis) was 51.6 °C, the “solubility in G1/S (log2)” value [3] was -0.185 and the “solubility change mitosis (log2)” value [4] was -0.0337.

Sequence “MIAHKQKKTKKKRAWASGQLSTDITTSEMGLKSLSSNSIFDPDYIKELVNDIRKFSHMLLYLKEAIFSDCFKEVIHIRLEELLRVLKSIMNKHQNLNSVDLQNAAEMLTAKVKAVNFTEVNEENKNDLFQEVFSSIETLAFTFGNILTNFLMGDVGNDSLLRLPVSRETKSFENVSVESVDSSSEKGNFSPLELDNVLLKNTDSIELALSYAKTWSKYTKNIVSWVEKKLNLELESTRNMVKLAEATRTNIGIQEFMPLQSLFTNALLNDIESSHLLQQTIAALQANKFVQPLLGRKNEMEKQRKEIKELWKQEQNKMLEAENALKKAKLLCMQRQDEYEKAKSSMFRAEEEHLSSSGGLAKNLNKQLEKKRRLEEEALQKVEEANELYKVCVTNVEERRNDLENTKREILAQLRTLVFQCDLTLKAVTVNLFHMQHLQAASLADSLQSLCDSAKLYDPGQEYSEFVKATNSTEEEKVDGNVNKHLNSSQPSGFGPANSLEDVVRLPDSSNKIEEDRCSNSADITGPSFIRSWTFGMFSDSESTGGSSESRSLDSESISPGDFHRKLPRTPSSGTMSSADDLDEREPPSPSETGPNSLGTFKKTLMSKAALTHKFRKLRSPTKCRDCEGIVVFQGVECEECLLVCHRKCLENLVIICGHQKLPGKIHLFGAEFTQVAKKEPDGIPFILKICASEIENRALCLQGIYRVCGNKIKTEKLCQALENGMHLVDISEFSSHDICDVLKLYLRQLPEPFILFRLYKEFIDLAKEIQHVNEEQETKKNSLEDKKWPNMCIEINRILLKSKDLLRQLPASNFNSLHFLIVHLKRVVDHAEENKMNSKNLGVIFGPSLIRPRPTTAPITISSLAEYSNQARLVEFLITYSQKIFDGSLQPQDVMCSIGVVDQGCFPKPLLSPEERDIERSMKSLFFSSKEDIHTSESESKIFERATSFEESERKQNALGKCDACLSDKAQLLLDQEAESASQKIEDGKTPKPLSLKSDRSTNNVERHTPRTKIRPVSLPVDRLLLASPPNERNGRNMGNVNLDKFCKNPAFEGVNRKDAATTVCSKFNGFDQQTLQKIQDKQYEQNSLTAKTTMIMPSALQEKGVTTSLQISGDHSINATQPSKPYAEPVRSVREASERRSSDSYPLAPVRAPRTLQPQHWTTFYKPHAPIISIRGNEEKPASPSAAVPPGTDHDPHGLVVKSMPDPDKASACPGQATGQPKEDSEELGLPDVNPMCQRPRLKRMQQFEDLEGEIPQFV [ARHGAP29]” has a thermal stability score [1, 5] of 1, a thermal stability score ([1]; cell cycle stage: mitosis) of 1.36 and a melting temperature ([2]; cell cycle stage: G1/S) of 50.5 °C. The melting temperature ([2]; cell cycle stage: mitosis) was 51.1 °C, the “solubility in G1/S (log2)” value [3] was -0.185 and the “solubility change mitosis (log2)” value [4] was -0.0634.

“MIASHLLAYFFTELNHDQVQKVDQYLYHMRLSDETLLEISKRFRKEMEKGLGATTHPTAAVKMLPTFVRSTPDGTEHGEFLALDLGGTNFRVLWVKVTDNGLQKVEMENQIYAIPEDIMRGSGTQLFDHIAECLANFMDKLQIKDKKLPLGFTFSFPCHQTKLDESFLVSWTKGFKSSGVEGRDVVALIRKAIQRRGDFDIDIVAVVNDTVGTMMTCGYDDHNCEIGLIVGTGSNACYMEEMRHIDMVEGDEGRMCINMEWGAFGDDGSLNDIRTEFDQEIDMGSLNPGKQLFEKMISGMYMGELVRLILVKMAKEELLFGGKLSPELLNTGRFETKDISDIEGEKDGIRKAREVLMRLGLDPTQEDCVATHRICQIVSTRSASLCAATLAAVLQRIKENKGEERLRSTIGVDGSVYKKHPHFAKRLHKTVRRLVPGCDVRFLRSEDGSGKGAAMVTAVAYRLADQHRARQKTLEHLQLSHDQLLEVKRRMKVEMERGLSKETHASAPVKMLPTYVCATPDGTEKGDFLALDLGGTNFRVLLVRVRNGKWGGVEMHNKIYAIPQEVMHGTGDELFDHIVQCIADFLEYMGMKGVSLPLGFTFSFPCQQNSLDESILLKWTKGFKASGCEGEDVVTLLKEAIHRREEFDLDVVAVVNDTVGTMMTCGFEDPHCEVGLIVGTGSNACYMEEMRNVELVEGEEGRMCVNMEWGAFGDNGCLDDFRTEFDVAVDELSLNPGKQRFEKMISGMYLGEIVRNILIDFTKRGLLFRGRISERLKTRGIFETKFLSQIESDCLALLQVRAILQHLGLESTCDDSIIVKEVCTVVARRAAQLCGAGMAAVVDRIRENRGLDALKVTVGVDGTLYKLHPHFAKVMHETVKDLAPKCDVSFLQSEDGSGKGAALITAVACRIREAGQR [HK2]” was tested, and the thermal stability score [1, 5] was 1.07, the thermal stability score ([1]; cell cycle stage: mitosis) was 2.33 and the melting temperature ([2]; cell cycle stage: G1/S) was 48.2 °C. The melting temperature ([2]; cell cycle stage: mitosis) was 49.1 °C, the “solubility in G1/S (log2)” value [3] was -0.166 and the “solubility change mitosis (log2)” value [4] was -0.148.

“MICLVLTIFANLFPAACTGAHERTFLAVKPDGVQRRLVGEIVRRFERKGFKLVALKLVQASEELLREHYAELRERPFYGRLVKYMASGPVVAMVWQGLDVVRTSRALIGATNPADAPPGTIRGDFCIEVGKNLIHGSDSVESARREIALWFRADELLCWEDSAGHWLYE [NME3]” gave a thermal stability score [1, 5] of -1.81, a thermal stability score ([1]; cell cycle stage: mitosis) of -2.22 and a melting temperature ([2]; cell cycle stage: G1/S) of 55.7 °C. The melting temperature ([2]; cell cycle stage: mitosis) was 56.8 °C, the “solubility in G1/S (log2)” value [3] was -0.213 and the “solubility change mitosis (log2)” value [4] was -0.0854.
